A short description of this data set: soluble on expression in E. coli; label from the status in PepcDB or PDB records.
Consider “MGSDKIHHHHHHMVVNLTYMLNTEDRKFIIDSVKKGYKVTELARMFNVTPRRIQQILHESEMPESAKDSELTDEEKKFIDDLWDRYRIGSRTIYYLLRSKGLNVSYYKIYNYMKMKRMVQIKDNALIVNGKKAEPPLSTVLLDYHQKNFNDQYAIFCVDMTTKKILSYAESVKITSDVVSGVL”, for which the “soluble on expression in E. coli” value was “not soluble”.
Next, “MQGTKIRLMVGGLLLAAASNNVQAEALQPDPAWQQGKLDNGFSWQLLATPQRPSDRIELRLIVNTGSLSENTQEVGFAHLLPRLALMSSASFTPAQLQSLWQQGIDNERPLPPAITSYDFTLYSLSLPNNRPDLLKDALAWLSDTAGNLAVSEQTVNAALNTATDPIATFPQNIQEPWWRYRLKGSSLIGHDPGQPVTQPVDVEKLKQFYQQWYTPDAMTLYVVGNVDSRSIAAQISKAFSELKGKRTAPAAVATLAPLPPEPVSLMNEQAAQDTLSLMWDTPWHPIQDSMALSRYWRSDLAREALFWHIKQVLEKNNQKNLKLGFDCRVQYQRAQCAIHLNTPVENLTANMTFVARELAALRANGLSQAEFDALMTQKNDQLSKLFATYARTDTDILMSQRLRSQQSGVVDIAPEQYQKLRQAFLSGLTLAELNRELKQQLSQDTTLVLMQPKGEPEVNVKALQEIYNGIMAPQTVAEEEVAPAEAVETAPVMPTTAQ”: “not soluble”; “MSLVSSTLKSVSRCRHFRIDGFWLQTVMSDIFSHTALSNLAEFSVSELSGSIKRTVETAFEQVRVRGEISGYRGPHSSGHAYFSLKDDRARIDAVIWKGTFSRLKFRPEEGMEVIATGKITTFPGSSKYQIVIESLEPAGAGALMALLEDRRRRLAAEGLFDSARKRPLPFMPRVIGVVTSPTGAVIRDILHRISDRFPVHVVVWPVKVQGEGSGEEVANAIRGFNALKPGGDIARPDVLIVARGGGSLEDLWSFNDEIVVRAAAESEIPLISAVGHETDTTLIDYAADVRAPTPTGAAEMAVPVRAELEAQLSGLAARLSGSVSRQMDNRRQGVRALVRALPSLDQLLALPRRRFDEAASGLGRGLELTTLNKRRAFERSASGLRPETLLNGLKHHRQRITERMHRAETLVERRLLQGKGRVDSFDSALRSLPARLLGQLERQKERVVTAARRADTAVLHRMAQNRSGLAAHDRILQSLSYKNVLNRGYAVIRDEENRPLTRAAAIASGAAVSMEFADGRVSAITTGEGTPAPETAAAPKKKPAKPASSDPGNQGNLFEGHHHHHH”: “not soluble”.
As for “MITLWENRDKWEEDSNLHGLLLTIIKNKALNYLAHLQVRLRAEEEINSHSQRELDLRISTLEACEPDAIFDSEIQHIVQKALKRMPNQSRQIFILSRYQNTPNKKIAEQLGISVKSVEFHITKALKILRTELKDYLVSILF”, the entry is “not soluble”; as for “MSTPTAADRAKALERKNEGNVFVKEKHFLKAIEKYTEAIDLDSTQSIYFSNRAFAHFKVDNFQSALNDCDEAIKLDPKNIKAYHRRALSCMALLEFKKARKDLNVLLKAKPNDPAATKALLTCDRFIREERFRKAIGGAENEAKISLCQTLNLSSFDANADLANYEGPKLEFEQLYDDKNAFKGAKIKNMSQEFISKMVNDLFLKGKYLPKKYVAAIISHADTLFRQEPSMVELENNSTPDVKISVCGDTHGQFYDVLNLFRKFGKVGPKHTYLFNGDFVDRGSWSCEVALLFYCLKILHPNNFFLNRGNHESDNMNKIYGFEDECKYKYSQRIFNMFAQSFESLPLATLINNDYLVMHGGLPSDPSATLSDFKNIDRFAQPPRDGAFMELLWADPQEANGMGPSQRGLGHAFGPDITDRFLRNNKLRKIFRSHELRMGGVQFEQKGKLMTVFSAPNYCDSQGNLGGVIHVVPGHGILQAGRNDDQNLIIETFEAVEHPDIKPMAYSNGGFGL”, “soluble”; as for “MGSDKIHHHHHHMKSFRNIMGDSQNLDKRIQKIKQNVINDTDVKHFLEKNRSNITNEMIDEDLNVLQEYKDQQKVYDGHRYDDCPNFVKGHVPELYIENERIKIRYLPCPCKIKHDEERFDSQLITSHHMQRDTLHAKLKDIYMNNRERLDVAMAADQICTAITNDEKVKGLYLYGPFGTGKSFILGAIANQLKSQKISSTIVYLPEFIRTLKGGFKDGSFEKKLQRVREANILMLDDIGAEEVTPWVRDEVIGPLLHYRMVHELPTFFSSNFNYSELEHHLSITRDGTEKTKAARIIERIKTLSTPYYLTGKNFRNN”, “not soluble”.
Regarding “MGSDKIHHHHHHMPTLIERIHQVELGNLTQLDQLCHQLGLPYFLMGGSLLGAIRHQGFIPWDDDVDVGLLRADYDQLLAAAPTHLADSPYFLQTPTSDENYGLSYAKLLDRRTYIEEKRNVNNARKGIFIDIFPLDRIPQDTSAQQKQSTKFQLLNTRILLQLRYHLVDNPLRKLQGPLSSEQLTSVNALKAERQAVMTQYQAEITLPQVKNLSSQYAYAKEVFTVAELSDLTTVPFEHLQVQVPRNYATILTRMYGDYLALPPENQRTKKHLERVIMDNQVFTD”, the “soluble on expression in E. coli” value was “not soluble”.
Consider “MSLSIPREFSNAIRFLSIDATLKAKSGHPGMPMGMADIATVLWTKFLKHNPNNPHWINRDRFVLSNGHGSMLLYSLLHLTGYDLSIEDIKNFRQLHSKTPGHPEYGYTPGVETTTGPLGQGVANAVGMALGEKLLSDRYNTPDLKVIDHHTYVFLGDGCLMEGVSHEACSLAGTLGLNKLVAFWDDNNISIDGDTKGWFSDNTPERFRAYGWHVIENVDGHDFVAIEKAINEAHSQQQKPTLICCKTVIGFGSPEKAGTASVHGSPLSDQERASAAKELNWDYQAFEIPQDVYKYWDAREKGQALEANWQGQRNLFKDSPKFDEFERVLSKELPVGLESAINDYIASQLSNPVKVATRKASQMVLEVLCKNMPEMFGGSADLTGSNNTNWSGSVWLNNTQEGANYLSYGVREFGMAAIMNGLSLYGGIKPYGGTFLVFSDYSRNAIRMSALMKQPVVHVMSHDSIGLGEDGPTHQPIEHVPSLRLIPNLSVWRPADTIETMIAWKEAVKSKDTPSVMVLTRQNLMPVVQTQHQVANIARGGYLVKDNPDAKLTIVATGSEVELAVKVANEFEKKGIKLNVASIPCVEVFATQAHEYKKTVIKDDIPAVFVEMAQPDMWYKYMPKAGGEVKGIYSFGESAPAEDLFKRFGFTVENISNIVAKYV”, for which the “soluble on expression in E. coli” value was “soluble”.
Next, “MAHHHHHHMLYSSIRYGRNCTGTNETVKPLGPCVTPLGTILGVFNGVFGYSNCNDSYVSTELRYINLTVPELNNETGQLTYISKQFYTGLAWQCVEYARRYWMQRGTPQPAYFDSVLGAADVWNLTFVRLLSNASITLPLRRYWNGDRVTDNHQIPAIGDIIIYPVQDGGFPYGHVAVIANVELSTHGAIYVAEQNWANAVWSSPHHNYTRRIPMFYDMLTSTITLDDSEHQIIGWMRYG”: “not soluble”.
Turning to “MIFFSVALTTLLVGLSNGCFCPPVISPSCGCGGGGYSSYSGGGYGGGYGGGAINGYATFYRDLTPFRQPYYQTASYPQYQQGPAQSLQQMYQLPNPRYIQPQAPRPQYISRPAPRPAPAPYQPPRVQERPYVQPAAPVAELAETRKNTLHDNGYGEEIERTTYTPVVTAAPVYETDAPTIVTQAPAVEEVPDFDETPVKKGEKDEFYYAYYDDKGNKVGDSRSGTTFAPENVIVEEEATVAPAPASIHMDVTTERVEVANENYDDVVEETQVPVRTSLSPSYTPEVVTSSTVLFMEPRVEAKTVAPAAHENTEVVYEDETVEYEDDGHSETSELPSTKKPQSAEFKRTVQDNQILVDAAENTGEGYRRRNAVNGVRIVKRFRHDERKIHSN”, the “soluble on expression in E. coli” value is listed as “not soluble”.
As for “GLDTLDRDGDGSTADADCNDFAPTIHPGAAEATLDGVDSNCDGRDSGVAEVVETFKNPGTYSSPVINFKIASPPGPGTPIYGPPRDFSGYNKSYSLAIGKTSYYDPTTGTKWNDDTITPVSDGQDIWRGWTHTGKWSFFNGKAGDKITLSVQRDAQEASLKGAHPGFILFWRPEGGPLFWAGTQDLDEGQTALPADSDTVIGHVIVQHADWTLQGLPPKADHTAPAGVDTELYPMKPDSYTMYYVDSGYDADKYVASKKLIMHPTAFKGLALNDGTAGAFTKSITLPKTGYYMLYVANVLEVDDWSVDADGKLTTTGEVWEVPAKGCWVNITISKP”, the entry is “soluble”.
As for “SADWARAQSPGAVEEILDRENKRMADSLASKVTRLKSLALDIDRDAEDQNRYLDGMVRAHGVRVSVPCPSTTCCRACSVSFSTGAGGWSNHHFCVILLGFLP”, the entry is “soluble”; as for “MAHHHHHHMPLFCSSTTFMLKVRRAAVKTWKCFAFIAFVSSSMRYISCGFTADDNTKSKSCPFDALGISNNSDMTTVKAAYRSKCQTEHPDVGGTEEGFRRIRWAYESCCEKLVKTGPRSNSEFDGSSHESSSKQKDDEGDYTHSYYRYKSKDERYHEQRQMFYYLFSSVETRNDIDNLLSKALRSHCFDAIDVSEPLRLSLRNYHRVTGYGEHHLTSCFAAMEHWEEYTQRRADVTQYHIMLILYTDGPKPGLTAQLISEGVEAIMEQMCVKGIEYDDWSLTLAHKAYRVCPYPST”, “not soluble”; as for “SGGTSSSTAHLAVVNIIGTIDSSNQSVNSEDTNKALERAFEAKNSKAVALNINSPGGSPVQSDEIWQEIRYLKKQHPDKKVYAVIGDMGASGAYYIASAADEIIVNPSSLVGSIGVIMPNYGITGLAQKLGIEDRTLTSGSNKDILSMTKPVNPAQREHIQSVLDNVHAHFINAVKEGRGTRLKSNDPAIFSGLFWTGEQAIQLGVAD”, “not soluble”.
With “MDDPVADQPDGTDETPDGDTAGSSPIGLADAQARAREAVAELLEHPFDGIITAESGADGGWRILAEVVERSAVPDTQDIIGRYEITLDDGGRVLEHHHHHH”, the “soluble on expression in E. coli” value is given as “not soluble”.
Next, “MEAGFVSIGDVTFRDLEDEAIVELVRKGNTDALEYLIHKYKNFVRAKSRSYFLVGADREDIVQEGMIGLFKAIRDYKEDKLSSFKAFAELCITRQIITAIKTATRQKHIPLNSYVSLDKPIYDEESDRTLLDVISEAKVTDPEEMIISQEEYTDIESKISELLSDLERKVLSLYLDGRSYQEISEQLNRHVKSIDNALQRVKRKLERYMEMRESTTLNS”: “not soluble”; “NATQINEELYRLLEDTEILNQEITEGLLKGFEVPDAGVAIQLSKRDVVYPARILIIVLSEMWRFGLTKQSESFLAQVLTTIQKVVTQLKGNDLIPSGVFWLANVRELYSFVVFALNSILTEETFKNGMTDEEYKEYVSLVTELKDDFEALSYNIYNIWLKKLQKQLQKKAINAVVISESLPGFSAGETSGFLNKIFANTEEYTMDDILTFFNSIYWCMKSFHIENEVFHAVVTTLLNYVDAICFNELIMKRNFLSWKRGLQLNYNVTRLEEWCKTHGLTDGTECLQHLIQTAKLLQVRKYTIEDIDILRGICYSLTPAQLQKLISQYQVADYESPIPQEILRYVADIVKKEAALSSSGNDSKGHEHSSSIFITPETGPFTDPFSLIKTRKFDQVEAYIPAWLSLPSTKRIVDLVAQQVV”: “soluble”.
Next, “GVFTYESEFTSEIPPPRLFKAFVLDADNLVPKIAPQAIKHSEILEGDGGPGTIKKITFGEGSQYGYVKHKIDSIDKENYSYSYTLIEGDALGDTLEKISYETKLVASPSGGSIIKSTSHYHTKGNVEIKEEHVKAGKEKASNLFKLIETYLKGHPDAYN”: “soluble”; “YDSEVIEYAKEQENIISKLEYRVYKHDDGRSVNRQDLMRDYARVLYSSSFRRLQGKMQLLGVDASKFNRNRLTHSLEVAQIARSIAYDLELNHTVVAETASLAHDIGNPPFGHYGEVVLNDLSLACGGYEGNAQAFRILRTLEKKHYAYPGLNLNVRTLMAITKYFFNKHQNNKKFLYDADYEFLKTELDSKGVTVTKSIDAEIMDLADEIAYAAHDLEDALSFGMISLGEIVHEFSISDKFKDAYPTMTDIAKEAQNVAMKASRSGTSEEYAIVLKKELTSMIVNILCSDIGLVDGCLGYKRHAKLAEGLKKLLFKAILRKKDIQLYERRGEQIIRGLFEVYSDEKYNKDNMLLPPELRAINDCKTRLVTDYISGMMDSYAAQEYEKYFGKGSADKLYFK”: “soluble”.

Values taken from the DeepSol protein solubility set.
